Columns and labels:
[1] = biological target: T1, human PD-L1 on the cell surface (CHO-K1 cells stably expressing human PD-L1) (human, UniProt Q9NZQ7 19-290); experiment: FACS on CHO-K1/hPD-L1 cells
T1 construct: whole, on cells; Also used here for PD-L1 on the monocyte-derived dendritic cells of the MLR assay (functional rows); also called CHO-K1/PD-L1; CHOK1-PD-L1
Protocol: The ability of the purified antibodies to bind to cell membrane human PD-L1 was determined by FACS analysis. CHO-K1 cells stably expressing human PD-L1 (CHO-K1/hPD-L1 cells) were resuspended in PBS containing 2% FBS (FACS buffer) and seeded at 1×10⁵ cells/well into 96-well round-bottomed plates (Corning; Cat. No. 3799). […] The assay plate was then read on a flow cytometer. The data were processed by GraphPad software, and EC50 values were calculated. The EC50 for binding activity according to this FACS analysis is the concentration at which of an antibody induces a response halfway between the baseline and maximum and reflects the binding ability of the antibody.

[2] = biological target: T2, cynomolgus (cyno) PD-L1/His fusion protein (cynomolgus, UniProt G7PSE7 19-239); experiment: ELISA, coated cyno PD-L1 protein
T2 construct: also called cynomolgus PD-L1; not shown: His tag
T2 sequence (G7PSE7 entry or part of it): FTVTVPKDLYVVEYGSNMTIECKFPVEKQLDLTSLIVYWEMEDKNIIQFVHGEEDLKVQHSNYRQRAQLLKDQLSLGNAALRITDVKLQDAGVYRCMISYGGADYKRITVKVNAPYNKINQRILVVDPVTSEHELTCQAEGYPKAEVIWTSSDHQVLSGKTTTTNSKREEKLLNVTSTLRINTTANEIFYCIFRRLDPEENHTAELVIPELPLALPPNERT
Protocol: (§1) The ability of an antibody to bind human or cynomolgus (cyno) PD-L1 (binding activity) was determined by ELISA. ELISA plates were incubated overnight at 4° C. with 50 μl of the human or cyno PD-L1 protein described above diluted in PBS buffer, pH 7.4, at 1 μg/ml. Plates were washed four times in washing buffer (PBS containing 0.05% Tween 20) and blocked for 1 hour at 37° C. with 200 μl per well of blocking buffer (1% BSA in PBS containing 0.05% Tween 20). After blocking buffer was removed, diluted purified antibodies (200 nM and 1:5 serial dilutions to provide 7 concentrations of each antibody) were added to the wells at 100 μl per well and incubated at 37° C. for 1 hour. The wells were washed four times with washing buffer, and anti-human IgG (Fc-specific) HRP-conjugated antibody (Sigma), diluted 1:10,000, was added to the wells at 100 μl per well. The plates were incubated for 1 hour at 37° C. and washed four times in washing buffer. 100 μl of tetramethylbenzidine (TMB) chromogenic solution were added per well. Following color development, the reaction was stopped with 1 N HCl, and absorbance at 450 nm was measured on a VARIOSKAN™ LUX multimode microplate reader (ThermoFisher Scientific, Vataa, Finland). The data were processed by GraphPad software, and EC50 values were calculated. The EC50 for binding activity according to this ELSA is the concentration at which an antibody induces a response halfway between the baseline and maximum and indicates the binding ability of the antibody.

[3] = biological target: T3, human PD-L1/His fusion protein (human, UniProt Q9NZQ7 19-239); experiment: BLI off-rate; test group 1 (reference itself)
T3 sequence (Q9NZQ7 19-239 limits assumed): as the sequence (G7PSE7 entry or part of it) above, with T33A, S34A, N62S, Q68R, R82Q, L173F, A185T, I192T, L215H counted along it
Protocol: (§2) All 15 antibodies in Table 13 were assayed for and ranked by dissociation rate constant (koff). […] Briefly, antibodies were characterized for affinities and binding kinetics by Octet®RED96 biolayer interferometry (Pall ForteBio LLC). Antibodies were captured by Anti-hIgG Fc Capture (AHC) Biosensors (Pall) at a concentration of 100 nM for 30 seconds. Sensors were then dipped into running buffer (1×pH 7.2 PBS, 0.05% Tween 20, 0.1% BSA) for 60 seconds to check the baseline. Binding was measured by dipping sensors into a single concentration of recombinant human PD-L1/His fusion protein (Novoprotein). Dissociation was followed by dipping sensors into running buffer for 1200 seconds. The association and dissociation curves were fitted to a 1:1 Langmuir binding model using ForteBio Data Analysis software (Pall). […] The off-rate ratio serves as a data normalization. Accordingly, in each test group, the off-rate ratios of the humanized antibodies can be compared with that of the chimeric antibody, and the off-rate ratios of each of the humanized antibodies can be compared to one another within all test groups.

[4] = biological target: T3, human PD-L1/His fusion protein; experiment: BLI off-rate; test group 2 (reference itself)
Protocol: as §2

[5] = biological target: T3, human PD-L1/His fusion protein; experiment: BLI off-rate; test group 3 (reference itself)
Protocol: as §2

[6] = biological target: T2, cynomolgus (cyno) PD-L1/His fusion …; experiment: BLI Octet RED96, cyno PD-L1; cyno PD-L1, not human
[7] = biological target: T3, human PD-L1/His fusion protein; experiment: ELISA, coated human PD-L1 protein, anti-human Fc detection
Protocol: as §1

[8] = biological target: human PD-L1/Fc Fusion Protein (human); experiment: RBA ELISA: coated PD-L1/Fc, competitor biotinylated human PD-1
Sequence of human PD-L1/Fc Fusion Protein (human) (chain, as listed by the source limits assumed): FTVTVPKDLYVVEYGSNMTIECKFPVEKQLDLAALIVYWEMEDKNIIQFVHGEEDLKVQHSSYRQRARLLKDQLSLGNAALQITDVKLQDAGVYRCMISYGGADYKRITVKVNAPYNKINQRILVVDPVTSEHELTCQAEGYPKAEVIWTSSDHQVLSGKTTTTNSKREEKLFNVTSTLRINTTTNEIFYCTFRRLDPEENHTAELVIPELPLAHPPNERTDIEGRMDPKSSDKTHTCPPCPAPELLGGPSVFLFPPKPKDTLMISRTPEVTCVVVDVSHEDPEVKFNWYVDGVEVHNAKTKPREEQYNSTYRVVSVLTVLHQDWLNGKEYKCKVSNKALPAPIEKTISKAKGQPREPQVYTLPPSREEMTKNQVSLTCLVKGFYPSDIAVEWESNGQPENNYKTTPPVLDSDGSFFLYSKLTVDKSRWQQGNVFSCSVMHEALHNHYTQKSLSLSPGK
Protocol: ELISA plates were coated with 100 μl of 1 μg/ml of human PD-L1/Fc in PBS and incubated overnight at 4° C. Plates were washed four times in washing buffer (PBS containing 0.05% Tween 20) and blocked for 1 hour at 37° C. with 200 μl per well of blocking buffer (1% BSA in PBS containing 0.05% Tween 20). […] A human IgG was included as negative control. The signal was developed by adding streptavidin-HRP (Cat. No. S2468, Sigma) (100 μl/well at 1:5000 dilution) and incubating for 40 minutes at 37° C., followed by washing four times in washing buffer. Then, 100 μl of TMB solution were added per well. Following color development, the reaction was stopped with 1 N HCl, and absorbance at 450 nm was measured. The data were processed by GraphPad software, and IC50 values were calculated. […] The signal reduction induced by antibody samples was normalized to inhibition percentage, where the negative control was 0% inhibition, and the absolute value of signal reduction of each antibody divided by the signal of the negative control equals the percent inhibition by the antibody.

[9] = biological target: T3, human PD-L1/His fusion protein; experiment: BLI Octet RED96, antibody on AHC sensor, PD-L1/His in solution
Protocol: Binding of antibodies to PD-L1 was also assessed using biolayer interferometry (BLI) using an Octet® RED96 sensor device (Pall ForteBio LLC). Antibodies were captured by anti-hIgG Fc capture (AHC) Biosensors (Pall) at a concentration of 100 nM for 30 seconds. Sensors were then dipped into running buffer (1×pH7.2 PBS, 0.05% Tween 20, 0.1% BSA) for 60 seconds to check the baseline. Binding was measured by dipping sensors into a series of diluted concentrations of recombinant human PD-L1/His fusion protein. Dissociation was followed by dipping sensors into running buffer for 1200 seconds. The association and dissociation curves were fitted to a 1:1 Langmuir binding model using ForteBio Data Analysis software (Pall). The equilibrium dissociation constant KD (molarity) of the reaction between antibodies and related target proteins was then calculated from the kinetic rate constants using the formula KD=koff/kon.

[10] = biological target: T3, human PD-L1/His fusion protein; experiment: BLI Octet RED96, antibody on AHC sensor, single conc. PD-L1/His; test group 1
Protocol: as §2

[11] = biological target: T3, human PD-L1/His fusion protein; experiment: BLI Octet RED96, antibody on AHC sensor, single conc. PD-L1/His; test group 2
Protocol: as §2

[12] = biological target: T3, human PD-L1/His fusion protein; experiment: BLI Octet RED96, antibody on AHC sensor, single conc. PD-L1/His; test group 3
Protocol: as §2

T1 sequence (Q9NZQ7 19-290): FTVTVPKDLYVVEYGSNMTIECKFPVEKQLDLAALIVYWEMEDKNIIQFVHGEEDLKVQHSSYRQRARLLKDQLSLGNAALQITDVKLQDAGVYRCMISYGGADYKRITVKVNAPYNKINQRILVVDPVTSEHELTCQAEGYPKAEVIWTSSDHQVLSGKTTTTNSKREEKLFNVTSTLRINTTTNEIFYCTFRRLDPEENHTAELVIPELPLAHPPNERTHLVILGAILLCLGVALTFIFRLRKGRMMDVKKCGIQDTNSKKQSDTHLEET

B1: EM0005-mAb86c (antibody, human IgG1, kappa, V domains shown)
VH: QVQLQQSGAELVRPGSSVKMSCKTSGYTFTTYGINWVKQRPGQGLEWIGYIYIGNGYTEYNEKFKGKATLTSDPSSRTAYMQLSSLTSEDSAIYFCARDLMVIAPKTMDYWGQGTSVTVSS
VL: DIQMNQSHKFMSTSVGDRVSITCKASQDVGTAVAWYQQKPGQSPKLLIYWASTRHTGVPDRFTGGGSGTDFTLTISNVQSEDLADYFCQQYSSYPYTFGGGTKLEMKR
notes: Chimeric full-length IgG1; also called EM0005-86c; EM0005-86C
EC50 [1]: 0.22 nM | EC50 [2]: 0.1 nM | Off-Rate Ratio to that of EM0005-86c [3]: 100% | Off-Rate Ratio to that of EM0005-86c [4]: 100% | Off-Rate Ratio to that of EM0005-86c [5]: 100% | Kd [6]: 0.373 nM | EC50 [7]: 0.14 nM | IC50 [8]: 1.09 nM | Inhibition (percent) [8]: 97.4% | Kd [9]: 0.261 nM | koff [10]: 0.00123 s⁻¹ | koff [11]: 0.00179 s⁻¹ | koff [12]: 0.00103 s⁻¹

— patent US20230242675A1 (SHANGHAI EPIMAB BIOTHERAPEUTICS, published 2023)
